Binding data for 1 sequence are collected here from paper PMC6382702.

The series concerns T1, CagR (Streptomyces clavuligerus F613-1), ORF:155d736f.
T1 sequence: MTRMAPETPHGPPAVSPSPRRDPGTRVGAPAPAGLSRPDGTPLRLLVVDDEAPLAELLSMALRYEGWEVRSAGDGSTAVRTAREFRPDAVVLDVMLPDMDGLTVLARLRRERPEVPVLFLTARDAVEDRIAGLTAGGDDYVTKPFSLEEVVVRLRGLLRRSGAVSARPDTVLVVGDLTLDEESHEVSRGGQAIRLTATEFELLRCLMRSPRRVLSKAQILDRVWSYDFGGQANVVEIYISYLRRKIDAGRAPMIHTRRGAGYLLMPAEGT
Briefly: EMSA. Conditions: EMSA with 3.0 ug His-CagR and polydI/dC (1.0 mg as printed); buffer, pH and temperature not given (as in Zhang et al., 2015).

Take “CGACGCGCTCGGTCACAGGAATCTCCTTACGATGCATGCGGTGATGGAATAAGTATGCACTCGCCCGCATGTTTCGTCAATCATGGGTGCGCGATCGGTGCGTCCGACCGAAAGTGATCGGACGCTTACGCCATGGAGCGGCGCGCTGAACGCGTCGACGGAGGAATCCCCGGGGCCGTCGGACAGCGGCAGGGGTCTTCCGCACGGCGGCGGCCCGCCGCGGCATGCCGCAGGCCCCCGGCCGAGAGGGCCGGGGGCCTGCGGGGGTGGCGGCGCCGCGCCGGAGGGCCGGTCAGGCC (double strand) [argG upstream region (P2)]”: the binding entry is “binds”.
